± gives the uncertainty stated by the source.
B1: library; numbered along this chain (parent)
chain: MEVVDPQQLGMFTEGELMSVGMDTFIHRIDSTEVIYQPRRKRAKLIGKYLMGDLLGEGSYGKVKEVLDSETLCRRAVKILKKKKLRRIPNGEANVKKEIQLLRRLRHKNVIQLVDVLYNEEKQKMYMVMEYCVCGMQEMLDSVPEKRFPVCQAHGYFCQLIDGLEYLHSQGIVHKDIKPGNLLLTTGGTLKISDLGVAEALHPFAADDTCRTSQGSPAFQPPEIANGLDTFSGFKVDIWSAGVTLYNITTGLYPFEGDNIYKLFENIGKGSYAIPGDCGPPLSDLLKGMLEYEPAKRFSIRQIRQHSWFRKKHPPAEAPVPIPPSPDTKDRWRSMTVVPYLEDLHGADEDEDLFDIEDDIIYTQDFTVPGQVPEEEASHNGQRRGLPKAVCMNGTEAAQLSTKSRAEGRAPNPARKACSASSKIRRLSACKQQ

Variants of: B1
Test: STK11 functional score (HeLa growth suppression), rescaled enrichment; synonymous median = 1, nonsense median = 0 (normalised score)
Conditions: with HeLa; variant type: missense
Protocol: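 Deep mutational scan (TileSeq/POPCode codon randomisation) of full-length codon-optimised STK11 cDNA integrated at a Bxb1 landing pad (AAVS1) in HeLa cells. Restoring functional STK11 suppresses HeLa proliferation. Variant frequencies were measured by NGS before and after about two weeks of growth. The error-corrected enrichment log-ratio was rescaled so that synonymous median = 1 and nonsense median = 0, scores above 1 were compressed, and codon-level and three biological replicate scores were combined; error is the bootstrapped standard error. Scale: synonymous median = 1, nonsense median = 0; below 0.5 = damaging.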

First: MEVVDPQQLGMFTEGELMSVGMDTFIHRIDSTEVIYQPRRKRAKLIGKYLMGDLLGEGSYGKVKEVLDSETLCRRAVKILKKKKLRRIPNGEANVKKEIQLLRRLRHKNVIQLVDVLYNEEKQKMYMVMEYCVCGMQEMLDSVPEKRFPVCQAHGYFCQLIDGLEYLHSQGIVHKDIKPGPLLLTTGGTLKISDLGVAEALHPFAADDTCRTSQGSPAFQPPEIANGLDTFSGFKVDIWSAGVTLYNITTGLYPFEGDNIYKLFENIGKGSYAIPGDCGPPLSDLLKGMLEYEPAKRFSIRQIRQHSWFRKKHPPAEAPVPIPPSPDTKDRWRSMTVVPYLEDLHGADEDEDLFDIEDDIIYTQDFTVPGQVPEEEASHNGQRRGLPKAVCMNGTEAAQLSTKSRAEGRAPNPARKACSASSKIRRLSACKQQ [N181P]
Second: MEVVDPQQLGMFTEGELMSVGMDTFIHRIDSTEVIYQPRRKRAKLIGKYLMGDLLGEGSYGKVKEVLDSETLCRRAVKILKKKKLRRIPNGEANVKKEIQLLRRLRHKNVIQLVDVLYNEEKQKMYMVMEYCVCGMQEMLDSVPEKRFPVCQAHGYFCQLIDGLEYLHSQGIVHKDIKPGNLVLTTGGTLKISDLGVAEALHPFAADDTCRTSQGSPAFQPPEIANGLDTFSGFKVDIWSAGVTLYNITTGLYPFEGDNIYKLFENIGKGSYAIPGDCGPPLSDLLKGMLEYEPAKRFSIRQIRQHSWFRKKHPPAEAPVPIPPSPDTKDRWRSMTVVPYLEDLHGADEDEDLFDIEDDIIYTQDFTVPGQVPEEEASHNGQRRGLPKAVCMNGTEAAQLSTKSRAEGRAPNPARKACSASSKIRRLSACKQQ [L183V]
The STK11 functional score of the first is lower: -0.0573 ± 0.11 for the first, 1.2 ± 0.18 for the second.

MEVVDPQQLGMFTEGELMSVGMDTFIHRIDSTEVIYQPRRKRAKLIGKYLMGDLLGEGSYGKVKEVLDSETLCRRAVKILKKKKLRRIPNGEANVKKEIQLLRRLRHKNVIQLVDVLYNEEKQKMYMVMEYCVCGMQEMLDSVPEKRFPVCQAHGYFCQLIDGLEYLHSQGIVHKDIKPGNLLLTTGGTLKISDLGVAEALHPFAADDTCRTSQGSPAFQPPEIANGLDTFSGFKVDIWSAGVTLYNITTGLYPFEGDNIPKLFENIGKGSYAIPGDCGPPLSDLLKGMLEYEPAKRFSIRQIRQHSWFRKKHPPAEAPVPIPPSPDTKDRWRSMTVVPYLEDLHGADEDEDLFDIEDDIIYTQDFTVPGQVPEEEASHNGQRRGLPKAVCMNGTEAAQLSTKSRAEGRAPNPARKACSASSKIRRLSACKQQ [Y261P] and MEVVDPQQLGMFTEGELMSVGMDTFIHRIDSTEVIYQPRRKRAKLIGKYLMGDLLGEGSYGKVKEVLDSETLCRRAVKILKKKKLRRIPNGEANVKKEIQLLRRLRHKNVIQLVDVLYNEEKQKMYMVMEYCVCGMQEMLDSVPEKRFPVCQAHGYFCQLIDGLEYLHSQGIVHKDIKPGNLLLTTGGTLKISDLGVAEALHPFAADDTCRTSQGSPAFQPPEIANGLDTFSGFKVDIWSAGVTLYNITTGLYPFEGDNIYKLFENIGKGSYAIPGDCGPPLSDLLKGMLEYEPAKRFSIRQIRQHSWFRKKHPPAEAPVYIPPSPDTKDRWRSMTVVPYLEDLHGADEDEDLFDIEDDIIYTQDFTVPGQVPEEEASHNGQRRGLPKAVCMNGTEAAQLSTKSRAEGRAPNPARKACSASSKIRRLSACKQQ [P321Y] are within error of each other in STK11 functional score: 1.15 ± 0.38 for the first, 0.641 ± 0.72 for the second.

First: MEVVDPQQLGMFTEGELMSVGMDTFIHRIDSTEVIYQPRRKRAKLIGKYLMGDLLGEGSYGKVKEVLDSETLCRRAVKILKKKKLRRIPNGEANVKKEIQLLRRLRHKNVIQLVDVLYNEEKQKMYMVMEYCVCGMQEMLDSVPEKRFPVCQAHGYFCQLIDGLEYLHSQGIVHKDIKPGNLLLTTGGTLKISDLGVAEALHPFAADDTCRTSQGSPAFQPPEIANGLDTFSGFKVDIWSAGVTLYNITTGLYPFEGDNIYKLFENIGKGSYAIPGDCGPPLSDLLKGMLEYEPAKRFSIRQIRQHSWFRKKHPPAEAPVPIPPSPDTKDRWRSMTVVGYLEDLHGADEDEDLFDIEDDIIYTQDFTVPGQVPEEEASHNGQRRGLPKAVCMNGTEAAQLSTKSRAEGRAPNPARKACSASSKIRRLSACKQQ [P339G]
Second: MEVVDPQQLGMFTEGELMSVGMDTFIHRIDSTEVIYQPRRKRAKLIGKYLMGDLLGEGSYGKVKEVLDSETLCRRAVKILKKKKLRRIPNGEANVKKEIQLLRRLRHKNVIQLVDVLYNEEKQKMYMVMEYCVCGMQEMLDSVPEKRFPVCQAHGYFCQLIDGLEYLHSQGIVHKDIKPGNLLLTTGGTLKISDLGVAEALHPFAADDTCRTSQGSPAFQPPEIANGLDTFSGFKVDIWSAGVTLYNITTGLYPFEGDNIYKLFENIGKGSYAIPGDCGPPLSDLLKGMLEYEPAKRFSIRQIRQHSGFRKKHPPAEAPVPIPPSPDTKDRWRSMTVVPYLEDLHGADEDEDLFDIEDDIIYTQDFTVPGQVPEEEASHNGQRRGLPKAVCMNGTEAAQLSTKSRAEGRAPNPARKACSASSKIRRLSACKQQ [W308G]
The STK11 functional score of the first is higher: 0.73 ± 0.27 for the first, 0.086 ± 0.081 for the second.

Compared with MEVVDPQQLGMFTEGELMSVGMDTFIHRIDSTEVIYQPRRKRAKLIGKYLMGDLLGEGSYGKVKEVLDSETLCRRAVKILKKKKLRRIPNGEANVKKEIQLLRRLRHKNVIQLVDVLYNEEKQKMYMVMEYCVCGMQEMLDSVPEKRFPVCQAHGYFCQLIDGLEYLHSQGIVHKDIKPGNLLLTTGGTLKISDLGVAEALHPFAADDTCRTSQGSPAFQPPEIANGLDTFSGFKVDIWSAGVTLYNITTGLYPFEGDNIYKLFENIGKFSYAIPGDCGPPLSDLLKGMLEYEPAKRFSIRQIRQHSWFRKKHPPAEAPVPIPPSPDTKDRWRSMTVVPYLEDLHGADEDEDLFDIEDDIIYTQDFTVPGQVPEEEASHNGQRRGLPKAVCMNGTEAAQLSTKSRAEGRAPNPARKACSASSKIRRLSACKQQ [G270F], MEVVDPQQLGMFTEGELMSVGMDTFIHRIDSTEVIYQPRRKRAKLIGKYLMGDLLGEGSYGKVKEVLDSETLCRRAVAILKKKKLRRIPNGEANVKKEIQLLRRLRHKNVIQLVDVLYNEEKQKMYMVMEYCVCGMQEMLDSVPEKRFPVCQAHGYFCQLIDGLEYLHSQGIVHKDIKPGNLLLTTGGTLKISDLGVAEALHPFAADDTCRTSQGSPAFQPPEIANGLDTFSGFKVDIWSAGVTLYNITTGLYPFEGDNIYKLFENIGKGSYAIPGDCGPPLSDLLKGMLEYEPAKRFSIRQIRQHSWFRKKHPPAEAPVPIPPSPDTKDRWRSMTVVPYLEDLHGADEDEDLFDIEDDIIYTQDFTVPGQVPEEEASHNGQRRGLPKAVCMNGTEAAQLSTKSRAEGRAPNPARKACSASSKIRRLSACKQQ [K78A] is lower in STK11 functional score: 1.14 ± 0.39 for the first, -0.0486 ± 0.23 for the second.

First: MEVVDPQQLGMFTEGELMSVGMDTFIHRIDSTEVIYQPRRKRAKLIGKYLMGDLLGEGSYGKVKEVLDSETLCRRAVKILKKKKLRRIPNGEANVKKEIQLLRRLRHKNVIQLVDVLYNEEKQKMYMVMEYCVCGMQEMLDSVPEKRFPVCQAHGYFCQLIDGLEYLHSQGIVHKDIKPGNLLLTTGGTLKISDLGVAEALHPFAADDTCRTSQGSPAFQPPEIANGLDTFSGFKVDIYSAGVTLYNITTGLYPFEGDNIYKLFENIGKGSYAIPGDCGPPLSDLLKGMLEYEPAKRFSIRQIRQHSWFRKKHPPAEAPVPIPPSPDTKDRWRSMTVVPYLEDLHGADEDEDLFDIEDDIIYTQDFTVPGQVPEEEASHNGQRRGLPKAVCMNGTEAAQLSTKSRAEGRAPNPARKACSASSKIRRLSACKQQ [W239Y]
Second: MEVVDPQQLGMFTEGELMSVGMDTFIHRIDSTEVIYQPRRKRAKLIGKYLMGDLLGEGSYGKVKEVLDSETLCRRAVKILKKKKLRRIPNGEANVKKEIQLLRRLRHKNVIQLVDVLYNEEKQKMYMVMEYCVCGMQEMLDSVPEDRFPVCQAHGYFCQLIDGLEYLHSQGIVHKDIKPGNLLLTTGGTLKISDLGVAEALHPFAADDTCRTSQGSPAFQPPEIANGLDTFSGFKVDIWSAGVTLYNITTGLYPFEGDNIYKLFENIGKGSYAIPGDCGPPLSDLLKGMLEYEPAKRFSIRQIRQHSWFRKKHPPAEAPVPIPPSPDTKDRWRSMTVVPYLEDLHGADEDEDLFDIEDDIIYTQDFTVPGQVPEEEASHNGQRRGLPKAVCMNGTEAAQLSTKSRAEGRAPNPARKACSASSKIRRLSACKQQ [K146D]
The STK11 functional score of the first is higher: 0.934 ± 0.097 for the first, 0.483 ± 0.13 for the second.

MEVVDPQQLGMFTEGELMSVGMDTFIHRIDSTEVIYQPRRKRAKKIGKYLMGDLLGEGSYGKVKEVLDSETLCRRAVKILKKKKLRRIPNGEANVKKEIQLLRRLRHKNVIQLVDVLYNEEKQKMYMVMEYCVCGMQEMLDSVPEKRFPVCQAHGYFCQLIDGLEYLHSQGIVHKDIKPGNLLLTTGGTLKISDLGVAEALHPFAADDTCRTSQGSPAFQPPEIANGLDTFSGFKVDIWSAGVTLYNITTGLYPFEGDNIYKLFENIGKGSYAIPGDCGPPLSDLLKGMLEYEPAKRFSIRQIRQHSWFRKKHPPAEAPVPIPPSPDTKDRWRSMTVVPYLEDLHGADEDEDLFDIEDDIIYTQDFTVPGQVPEEEASHNGQRRGLPKAVCMNGTEAAQLSTKSRAEGRAPNPARKACSASSKIRRLSACKQQ [L45K] and MEVVDPQQLGMFTEGELMSVGMDTFIHRIDSTEVIYQPRRKRAKLIGKYLMGDLLGEGSYGKVKEVLDSETLCRRAVKILKKKKLRRIPNGEANVKKEIQLLRRLRHKNVIQLVDVLYNEEKQKMYMVMEYCVCGMQEMLDSVPEKRFPVCQAHGYFCQLIDGLEYLHSQGIVHKDIKPGNLLLTTGGTLKISDLGVAEALHPFAADDTCRTSQGSPAFQPPEIANGLDTFSGFKVDIWSAGVTLYNITTGLYPFEGDNIYKLFENIGKGSYAIPGDCGPPLSDLLKGMLEYEPAKRFSIRQIRQHSWFRKKHPPAEAPVPIPPSPDTEDRWRSMTVVPYLEDLHGADEDEDLFDIEDDIIYTQDFTVPGQVPEEEASHNGQRRGLPKAVCMNGTEAAQLSTKSRAEGRAPNPARKACSASSKIRRLSACKQQ [K329E] are within error of each other in STK11 functional score: 1.53 ± 0.23 for the first, 1.32 ± 0.077 for the second.

MEVVDPQQLGMFTEGELMSVGMDTFIHRIDSTEVIYQPRRKRAKLIGKYLMGDLLGEGSYGKVKEVLDSETLCRRAVKILKKKKLRRIPNGEANVKKEIQLLRRLRHKNVIQLVDVLYNEEKQKMYMVMEYCVCGMQEMLDSVPEKRFPVCQAHGYFCQLIDGLEYLHSQGIVHKDIKPGNLLLTTGGTLKISDLGVAEALHPFAADDTCRTSQGSPAFQPPEIANGLDTFSGFKVDIWSAGVTLYNITTGLYPFEGDNIYKLFENIGKGSYAIPGDCGPPLSDLLKGMLEYEPAKRFSIRQIRQHSWFRKKHPPAEAPVPIPPSPDTKDRWRSMTVVPYLEDLHGADEDEDLFDIEDDIIYTQDFTVPGQVPEEEASHNGQRRGLPKAVCMNGTEAAQLSTKSRAEGRAPNPARKACYASSKIRRLSACKQQ [S419Y] and MEVVDPQQLGMFTEGELMSVGMDTFIHRIDSTEVIYQPRRKRAKLIGKYLMGDLLGEGSYGKVKEVLDSETLCRRAVKILKKKKLRRIPNGEANVKKEIQLLRRLRHKNVIQLVDVLYNEEKQKMYMVMEYCVCGMQEMLDSVPEKRFPVCQAHGYFCQLIDGLEYLHSQGIVHKDIKPGNLLLTTGGTLKISDLGVAEALHPFAADDTCRTSQGSPAFQPPEIANGLDTFSGFKVDIWSAGVTLYNITTGLYPFEGDNIYKLFENIGKGSYAIPGDCGPPLSDLLKGMLEYEPAKRFSIRQIRQHSWFRKKHPPAEAPVPIPPSPDTKDRWRSMTVVPYLEDLHGADEDEDLFDIEDDIIYTQDFTVPGQVPEEEASHNGQRRGLPKAVCMNGTEAAQLSTKSRGEGRAPNPARKACSASSKIRRLSACKQQ [A406G] are within error of each other in STK11 functional score: 1.61 ± 0.027 for the first, 1.33 ± 0.31 for the second.
